Numbering of substitutions follows the chain as printed. Read-outs that look alike come from different tables or passages of the source. Blank lines part the entries; values can stand above or below the binder they belong to.
How the values were obtained:
[1] = molecular target: T1, human ROR1 on cells (full-length human ROR1 on huROR1-HEK293 cells; human ROR1 on A549 and HT-29 tumor cells) (human, UniProt Q01973 30-937); experiment: flow cytometry (FACS) on HT29 (HT-29) tumor cells, anti-human IgG-Fc secondary antibody, MFI
T1 construct: whole, on cells; also called hROR1-HEK293T; A549 tumor cells
Method: (§1) The specific method was as follows: A549 cells or HT-29 cells in the logarithmic growth phase were prepared to a single-cell suspension, the density was adjusted to 1×10⁶ cells/mL, 100 µL/well was added to a 96-well round-bottom plate, then centrifuged at 4° C., 300 g, and the supernatant was removed. […] After the incubation, the cell mixture was washed three times and then 100 μL of 1:300 diluted secondary antibody Goat F(ab′)₂ Anti-Human IgG-Fc (abcam, ab98596) was added. The mixture was incubated at 4° C. in the dark for 30 min. After washing three times, the cells were detected by flow cytometry (Beckman, CytoFLEX AOO-1-1102).

[2] = molecular target: T1, human ROR1 on cells (full-length human …); experiment: flow cytometry (FACS) on A549 tumor cells, anti-human IgG-Fc secondary antibody, MFI
Method: as §1

[3] = molecular target: T2, huROR1-His (human ROR1 ECD AA30-406 with C-terminal His tag, made in house) (human, UniProt Q01973 30-406); experiment: ELISA, huROR1-His coated plate, goat anti-human Fc-HRP, OD450
T2 construct: range 30-406; Expressed in HEK293; also called antigen protein huROR1-His; not shown: C-terminal His tag

[4] = molecular target: T2, huROR1-His (human ROR1 ECD AA30-406 …); experiment: as above; remark: listed apart in the source
[5] = molecular target: T2, huROR1-His (human ROR1 ECD AA30-406 …); experiment: as above; remark: listed apart in the source
[6] = molecular target: T2, huROR1-His (human ROR1 ECD AA30-406 …); experiment: as above; remark: listed apart in the source

T1 sequence (Q01973 30-937): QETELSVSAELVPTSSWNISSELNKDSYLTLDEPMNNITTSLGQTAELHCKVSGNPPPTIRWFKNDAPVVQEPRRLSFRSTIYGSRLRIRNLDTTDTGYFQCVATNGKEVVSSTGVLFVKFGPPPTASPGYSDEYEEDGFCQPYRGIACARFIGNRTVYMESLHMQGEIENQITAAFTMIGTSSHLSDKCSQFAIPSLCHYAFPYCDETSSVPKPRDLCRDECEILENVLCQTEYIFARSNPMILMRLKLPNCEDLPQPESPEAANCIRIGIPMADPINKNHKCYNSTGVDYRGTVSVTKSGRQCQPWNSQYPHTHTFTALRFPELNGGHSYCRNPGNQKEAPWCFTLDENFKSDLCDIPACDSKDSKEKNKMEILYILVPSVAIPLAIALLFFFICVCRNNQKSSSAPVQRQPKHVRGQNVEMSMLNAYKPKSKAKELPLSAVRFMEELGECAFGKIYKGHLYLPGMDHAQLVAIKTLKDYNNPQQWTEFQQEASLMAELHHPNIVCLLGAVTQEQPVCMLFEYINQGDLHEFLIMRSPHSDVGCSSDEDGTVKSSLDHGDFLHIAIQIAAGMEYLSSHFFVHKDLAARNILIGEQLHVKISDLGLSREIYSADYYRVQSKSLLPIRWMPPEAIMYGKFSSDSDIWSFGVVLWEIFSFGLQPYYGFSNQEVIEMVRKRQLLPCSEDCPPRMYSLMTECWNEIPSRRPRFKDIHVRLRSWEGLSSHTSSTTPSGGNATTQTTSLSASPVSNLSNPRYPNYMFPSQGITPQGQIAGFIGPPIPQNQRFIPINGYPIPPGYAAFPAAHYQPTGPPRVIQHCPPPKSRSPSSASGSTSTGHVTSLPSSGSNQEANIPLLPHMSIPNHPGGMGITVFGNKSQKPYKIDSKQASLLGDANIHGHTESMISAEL
T2 sequence (Q01973 30-406 limits assumed): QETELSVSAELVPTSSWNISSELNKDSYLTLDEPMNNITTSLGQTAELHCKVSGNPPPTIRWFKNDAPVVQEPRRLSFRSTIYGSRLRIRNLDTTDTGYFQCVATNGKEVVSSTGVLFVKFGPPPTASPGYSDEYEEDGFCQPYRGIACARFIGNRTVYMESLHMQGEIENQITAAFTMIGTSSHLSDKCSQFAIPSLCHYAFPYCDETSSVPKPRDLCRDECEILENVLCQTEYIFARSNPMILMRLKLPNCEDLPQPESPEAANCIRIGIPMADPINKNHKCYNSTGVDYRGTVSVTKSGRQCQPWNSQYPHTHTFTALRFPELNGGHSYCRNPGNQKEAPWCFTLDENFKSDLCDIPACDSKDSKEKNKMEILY

B1: B31-H3L3-MMAE (antibody, human IgG1, kappa, V domains shown)
VH: EVQLVESGGGLVQPGGSLRLSCAASGFTFSRYAMSWVRQAPGKGLEWVASISRGGSTYYADSVKGRFTISRDNSKNTLYLQMNSLRAEDTAVYYCASYFGNYDAMDYWGQGTTVTVSS
VL: DIQMTQSPSSLSASVGDRVTITCRASQDINNYVSWFQQKPGKAPKSLIYRANRLVSGVPSRFSGSGSGTDFTFTISSLQPEDFATYYCLQFDEFPYTFGGGTKLEIKR
modifications: MC-VC-PAB-MMAE on cysteine sulfhydryl groups of reduced interchain disulfides; average DAR 3.5 over the whole antibody
notes: conjugated positions not resolved; also called B31-H3L3-MC-VC-PAB-MMAE; B31-MMAE
- EC50 (read off the curve) [1]: ~20 ng/mL
- EC50 (read off the curve) [2]: ~20 ng/mL

B2: B31-H3L3 (antibody, human IgG1, kappa, V domains shown)
VH: B1 VH
VL: B1 VL
- EC50 (read off the curve) [1]: ~20 ng/mL
- EC50 [3]: 4.6 ng/mL
- EC50 (read off the curve) [2]: ~20 ng/mL

B4: B31-H2L3 (antibody, human IgG1, kappa, V domains shown)
VH: B1 VH with S74A, N83S
VL: B1 VL
- EC50 [5]: 4.29 ng/mL

B7: B31-H1L1 (antibody, human IgG1, kappa, V domains shown)
VH: B1 VH with A40T, G44R, A60P, S74A, N83S, V92M
VL: B1 VL with R24K, S46T, S56D, T69Q, F71Y
notes: also called B31-HIL1
- EC50 [5]: 3.24 ng/mL

B8: B31-H2L2 (antibody, human IgG1, kappa, V domains shown)
VH: B1 VH with S74A, N83S
VL: B1 VL with R24K, S56D, F71Y
- EC50 [5]: 4.57 ng/mL

B9: B31-H3L4 (antibody, human IgG1, kappa, V domains shown)
VH: B1 VH
VL: B1 VL with V33L, V55Q, F73L
- EC50 [3]: 5.23 ng/mL

B10: B31-H3L2 (antibody, human IgG1, kappa, V domains shown)
VH: B1 VH
VL: B1 VL with R24K, S56D, F71Y
- EC50 [3]: 3.23 ng/mL

The remaining lines, values ahead:

- EC50 [4]: 17.1 ng/mL
B3: B31-H4L4 (antibody, human IgG1, kappa, V domains shown)
VH: B1 VH with A49S, S50A
VL: B1 VL with V33L, V55Q, F73L

- EC50 [4]: 8.12 ng/mL
B5: B31-H4L2 (antibody, human IgG1, kappa, V domains shown)
VH: B1 VH with A49S, S50A
VL: B1 VL with R24K, S56D, F71Y

- EC50 [4]: 5.74 ng/mL
B6: B31-H4L3 (antibody, human IgG1, kappa, V domains shown)
VH: B1 VH with A49S, S50A
VL: B1 VL

- EC50 (read off the curve) [1]: ~20 ng/mL
- EC50 [6]: 7.21 ng/mL
- EC50 (read off the curve) [2]: ~10 ng/mL
B11: B62-H3L3 (antibody, human IgG1, kappa)
heavy: not shown
light: DIQMTQSPSSLSASVGDRVTITCVTSIDIDDDVNWYQQKPGKAPKLLISAGNTLRPGVPSRFSGSGSGTDFTFTISSLQPEDIATYYCLQSDNLPYTFGGGTKLEIKRTVAAPSVFIFPPSDEQLKSGTASVVCLLNNFYPREAKVQWKVDNALQSGNSQESVTEQDSKDSTYSLSSTLTLSKADYEKHKVYACEVTHQGLSSPVTKSFNRGEC

- EC50 (read off the curve) [1]: ~20 ng/mL
- EC50 (read off the curve) [2]: ~20 ng/mL
B12: B62-H3L3-MMAE (antibody, human IgG1, kappa)
heavy: not shown
light: B11 light
modifications: MC-VC-PAB-MMAE on cysteine sulfhydryl groups of reduced interchain disulfides; average DAR 3.5 over the whole antibody
notes: conjugated positions not resolved; also called B62-H3L3-MC-VC-PAB-MMAE

— US20250177546A1 (SANYOU BIOPHARMACEUTICALS, published 2025)
